# Assay results: the supplement of paper PMC5998384
# Legend:
# HeLa Kyoto [1] = assay: solubility change mitosis vs G1/S (difference of NP-40 vs SDS log2 ratios) (log2 ratio difference); higher = more soluble in mitosis
# HeLa Kyoto [2] = assay: solubility in G1/S (NP-40 vs SDS abundance) (log2 ratio); higher = more soluble; settings: cell cycle stage: G1/S
# HeLa Kyoto [3] = assay: thermal stability score vs G1/S (z-score of summed log2 fold changes over temperatures); higher = more thermally stable than in G1/S
# HeLa Kyoto [4] = assay: melting temperature (median over replicates), in situ; higher = more thermally stable
# [5] = cell cycle stage: early G1 (4.5 h after nocodazole release)
# 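Wherever melting temperature (median over replicates), in situ is given: HeLa Kyoto cells synchronized by double thymidine or nocodazole block, proteins quantified by TMT10plex mass spectrometry, three independent biological replicates.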
# 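Wherever solubility change mitosis vs G1/S (difference of NP-40 vs SDS log2 ratios) is given: synchronized HeLa Kyoto cells (double thymidine block for G1/S, nocodazole release for mitosis), protein amounts in NP-40 versus SDS lysates quantified by mass spectrometry, three biological replicates.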
# 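Wherever solubility in G1/S (NP-40 vs SDS abundance) is given: HeLa Kyoto cells arrested at G1/S by double thymidine block, proteins quantified by TMT10plex mass spectrometry in mild NP-40 versus SDS extracts, three biological replicates.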
# 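Wherever thermal stability score vs G1/S (z-score of summed log2 fold changes over temperatures) is given: synchronized HeLa Kyoto cells, proteins quantified by TMT10plex mass spectrometry, three biological replicates, mitosis taken 0.5 h after nocodazole release, G1/S directly after double thymidine block.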
Substance,solubility change mitosis (log2) (HeLa Kyoto [1]),solubility in G1/S (log2) (HeLa Kyoto [2]),thermal stability score (HeLa Kyoto [3]; [5]),thermal stability score (HeLa Kyoto [3]; cell cycle stage: mitosis),melting temperature (HeLa Kyoto [4]; cell cycle stage: G1/S) [°C],melting temperature (HeLa Kyoto [4]; cell cycle stage: mitosis) [°C]
MEGGGGRDEPSACRAGDVNMDDPKKEDILLLADEKFDFDLSLSSSSANEDDEVFFGPFGHKERCIAASLELNNPVPEQPPLPTSESPFAWSPLAGEKFVEVYKEAHLLALHIESSSRNQAAQAAKPEDPRSQGVERFIQESKLKINLFEKEKEMKKSPTSLKRETYYLSDSPLLGPPVGEPRLLASSPALPSSGAQARLTRAPGPPHSAHALPRESCTAHAASQAATQRKPGTKLLLPRAASVRGRSIPGAAEKPKKEIPASPSRTKIPAEKESHRDVLPDKPAPGAVNVPAAGSHLGQGKRAIPVPNKLGLKKTLLKAPGSTSNLARKSSSGPVWSGASSACTSPAVGKAKSSEFASIPANSSRPLSNISKSGRMGPAMLRPALPAGPVGASSWQAKRVDVSELAAEQLTAPPSASPTQPQTPEGGGQWLNSSCAWSESSQLNKTRSIRRRDSCLNSKTKVMPTPTNQFKIPKFSIGDSPDSSTPKLSRAQRPQSCTSVGRVTVHSTPVRRSSGPAPQSLLSAWRVSALPTPASRRCSGLPPMTPKTMPRAVGSPLCVPARRRSSEPRKNSAMRTEPTRESNRKTDSRLVDVSPDRGSPPSRVPQALNFSPEESDSTFSKSTATEVAREEAKPGGDAAPSEALLVDIKLEPLAVTPDAASQPLIDLPLIDFCDTPEAHVAVGSESRPLIDLMTNTPDMNKNVAKPSPVVGQLIDLSSPLIQLSPEADKENVDSPLLKF [GTSE1],0.505,0.351,0.104,-0.0609,49,50.3
MGSSKKHRGEKEAAGTTAAAGTGGATEQPPRHREHKKHKHRSGGSGGSGGERRKRSRERGGERGSGRRGAEAEARSSTHGRERSQAEPSERRVKREKRDDGYEAAASSKTSSGDASSLSIEETNKLRAKLGLKPLEVNAIKKEAGTKEEPVTADVINPMALRQREELREKLAAAKEKRLLNQKLGKIKTLGEDDPWLDDTAAWIERSRQLQKEKDLAEKRAKLLEEMDQEFGVSTLVEEEFGQRRQDLYSARDLQGLTVEHAIDSFREGETMILTLKDKGVLQEEEDVLVNVNLVDKERAEKNVELRKKKPDYLPYAEDESVDDLAQQKPRSILSKYDEELEGERPHSFRLEQGGTADGLRERELEEIRAKLRLQAQSLSTVGPRLASEYLTPEEMVTFKKTKRRVKKIRKKEKEVVVRADDLLPLGDQTQDGDFGSRLRGRGRRRVSEVEEEKEPVPQPLPSDDTRVENMDISDEEEGGAPPPGSPQVLEEDEAELELQKQLEKGRRLRQLQQLQQLRDSGEKVVEIVKKLESRQRGWEEDEDPERKGAIVFNATSEFCRTLGEIPTYGLAGNREEQEELMDFERDEERSANGGSESDGEENIGWSTVNLDEEKQQQDFSASSTTILDEEPIVNRGLAAALLLCQNKGLLETTVQKVARVKAPNKSLPSAVYCIEDKMAIDDKYSRREEYRGFTQDFKEKDGYKPDVKIEYVDETGRKLTPKEAFRQLSHRFHGKGSGKMKTERRMKKLDEEALLKKMSSSDTPLGTVALLQEKQKAQKTPYIVLSGSGKSMNANTITK [SART1],0.448,-0.654,0.893,3.51,50.8,51.6
MAGPVSLRDLLMGASAWMGSESPGGSPTEGGGSAAGGPEPPWREDEICVVGIFGKTALRLNSEKFSLVNTVCDRQVFPLFRHQDPGDPGPGIRTEAGAVGEAGGAEDPGAAAGGSVRGSGAVAEGNRTEAGSQDYSLLQAYYSQESKVLYLLLTSICDNSQLLRACRALQSGEAGGGLSLPHAEAHEFWKHQEKLQCLSLLYLFSVCHILLLVHPTCSFDITYDRVFRALDGLRQKVLPLLKTAIKDCPVGKDWKLNCRPCPPRLLFLFQLNGALKVEPPRNQDPAHPDKPKKHSPKRRLQHALEDQIYRIFRKSRVLTNQSINCLFTVPANQAFVYIVPGSQEEDPVGMLLDQLRSHCTVKDPESLLVPAPLSGPRRYQVMRQHSRQQLSFHIDSSSSSSSGQLVDFTLREFLWQHVELVLSKKGFDDSVGRNPQPSHFELPTYQKWISAASKLYEVAIDGKEEDLGSPTGELTSKILSSIKVLEGFLDIDTKFSENRCQKALPMAHSAYQSNLPHNYTMTVHKNQLAQALRVYSQHARGPAFHKYAMQLHEDCYKFWSNGHQLCEERSLTDQHCVHKFHSLPKSGEKPEADRNPPVLYHNSRARSTGACNCGRKQAPRDDPFDIKAANYDFYQLLEEKCCGKLDHINFPVFEPSTPDPAPAKNESSPAPPDSDADKLKEKEPQTQGESTSLSLALSLGQSTDSLGTYPADPQAGGDNPEVHGQVEVKTEKRPNFVDRQASTVEYLPGMLHSNCPKGLLPKFSSWSLVKLGPAKSYNFHTGLDQQGFIPGTNYLMPWDIVIRTRAEDEGDLDTNSWPAPNKAIPGKRSAVVMGRGRRRDDIARAFVGFEYEDSRGRRFMCSGPDKVMKVMGSGPKESALKALNSDMPLYILSSSQGRGLKPHYAQLMRLFVVVPDAPLQIILMPQVQPGPPPCPVFYPEKQEITLPPDGLWVLRFPYAYVTERGPCFPPKENVQLMSYKVLRGVLKAVTQ [SMG8],-0.0473,0.118,0.364,0.79,49.4,48.5
PLPP2,-0.279,-0.0273,0.347,-1.64,55,54.3
DHRS1,0.0211,0.111,0.897,0.418,50.7,51
MAAAAPDSRVSEEENLKKTPKKKMKMVTGAVASVLEDEATDTSDSEGSCGSEKDHFYSDDDAIEADSEGDAEPCDKENENDGESSVGTNMGWADAMAKVLNKKTPESKPTILVKNKKLEKEKEKLKQERLEKIKQRDKRLEWEMMCRVKPDVVQDKETERNLQRIATRGVVQLFNAVQKHQKNVDEKVKEAGSSMRKRAKLISTVSKKDFISVLRGMDGSTNETASSRKKPKAKQTEVKSEEGPGWTILRDDFMMGASMKDWDKESDGPDDSRPESASDSDT [RRP15],0.962,-1.21,-5.18,-11.7,–,54.2
MAARVLRARGAAWAGGLLQRAAPCSLLPRLRTWTSSSNRSREDSWLKSLFVRKVDPRKDAHSNLLAKKETSNLYKLQFHNVKPECLEAYNKICQEVLPKIHEDKHYPCTLVGTWNTWYGEQDQAVHLWRYEGGYPALTEVMNKLRENKEFLEFRKARSDMLLSRKNQLLLEFSFWNEPVPRSGPNIYELRSYQLRPGTMIEWGNYWARAIRFRQDGNEAVGGFFSQIGQLYMVHHLWAYRDLQTREDIRNAAWHKHGWEELVYYTVPLIQEMESRIMIPLKTSPLQ [GBAS],-0.0463,0.0162,-0.626,-0.959,53.7,53.3
MGCAPSIHVSQSGVIYCRDSDESSSPRQTTSVSQGPAAPLPGLFVQTDAADAIPPSRASGPPSVARVRRARTELGSGSSAGSAAPAATTSRGRRRHCCSSAEAETQTCYTSVKQVSSAEVRIGPMRLTQDPIQVLLIFAKEDSQSDGFWWACDRAGYRCNIARTPESALECFLDKHHEIIVIDHRQTQNFDAEAVCRSIRATNPSEHTVILAVVSRVSDDHEEASVLPLLHAGFNRRFMENSSIIACYNELIQIEHGEVRSQFKLRACNSVFTALDHCHEAIEITSDDHVIQYVNPAFERMMGYHKGELLGKELADLPKSDKNRADLLDTINTCIKKGKEWQGVYYARRKSGDSIQQHVKITPVIGQGGKIRHFVSLKKLCCTTDNNKQIHKIHRDSGDNSQTEPHSFRYKNRRKESIDVKSISSRGSDAPSLQNRRYPSMARIHSMTIEAPITKVINIINAAQENSPVTVAEALDRVLEILRTTELYSPQLGTKDEDPHTSDLVGGLMTDGLRRLSGNEYVFTKNVHQSHSHLAMPITINDVPPCISQLLDNEESWDFNIFELEAITHKRPLVYLGLKVFSRFGVCEFLNCSETTLRAWFQVIEANYHSSNAYHNSTHAADVLHATAFFLGKERVKGSLDQLDEVAALIAATVHDVDHPGRTNSFLCNAGSELAVLYNDTAVLESHHTALAFQLTVKDTKCNIFKNIDRNHYRTLRQAIIDMVLATEMTKHFEHVNKFVNSINKPMAAEIEGSDCECNPAGKNFPENQILIKRMMIKCADVANPCRPLDLCIEWAGRISEEYFAQTDEEKRQGLPVVMPVFDRNTCSIPKSQISFIDYFITDMFDAWDAFAHLPALMQHLADNYKHWKTLDDLKCKSLRLPSDS [PDE8B],-0.122,-0.134,0.505,0.304,49,49.1
MSGPRPVVLSGPSGAGKSTLLKRLLQEHSGIFGFSVSHTTRNPRPGEENGKDYYFVTREVMQRDIAAGDFIEHAEFSGNLYGTSKVAVQAVQAMNRICVLDVDLQGVRNIKATDLRPIYISVQPPSLHVLEQRLRQRNTETEESLVKRLAAAQADMESSKEPGLFDVVIINDSLDQAYAELKEALSEEIKKAQRTGA [GUK1],0.047,0.604,-0.1,-0.804,48.9,50.2
